From publication PMC6639331

How the values were obtained:
[1] = target: CCR4a, full length (human) (human) (UniProt Q9ULM6); assay: co-purification (metal affinity, SEC, anion exchange); CCR4a and CAF1 co-expressed in E. coli; nickel IMAC, tags cleaved by TEV, Superdex 200 in 10 mM HEPES/NaOH pH 7.5, 300 mM NaCl, 2 mM DTT, then Source 15Q
[2] = target: NOT1:NOT2:NOT3:CAF40 subcomplex (full-length subunits) (human) (UniProt A5YKK6); assay: SEC-MALS; reconstituted CCR4-NOT FULL, 40 ul at 0.9 mg/ml, Superose 6 5/150 in 10 mM HEPES/NaOH pH 7.5, 200 mM NaCl; SDS-PAGE with Coomassie staining of the complex
NOT1:NOT2:NOT3:CAF40 subcomplex (full-length subunits) (human), sequence (A5YKK6 whole entry, chain 1 of 4): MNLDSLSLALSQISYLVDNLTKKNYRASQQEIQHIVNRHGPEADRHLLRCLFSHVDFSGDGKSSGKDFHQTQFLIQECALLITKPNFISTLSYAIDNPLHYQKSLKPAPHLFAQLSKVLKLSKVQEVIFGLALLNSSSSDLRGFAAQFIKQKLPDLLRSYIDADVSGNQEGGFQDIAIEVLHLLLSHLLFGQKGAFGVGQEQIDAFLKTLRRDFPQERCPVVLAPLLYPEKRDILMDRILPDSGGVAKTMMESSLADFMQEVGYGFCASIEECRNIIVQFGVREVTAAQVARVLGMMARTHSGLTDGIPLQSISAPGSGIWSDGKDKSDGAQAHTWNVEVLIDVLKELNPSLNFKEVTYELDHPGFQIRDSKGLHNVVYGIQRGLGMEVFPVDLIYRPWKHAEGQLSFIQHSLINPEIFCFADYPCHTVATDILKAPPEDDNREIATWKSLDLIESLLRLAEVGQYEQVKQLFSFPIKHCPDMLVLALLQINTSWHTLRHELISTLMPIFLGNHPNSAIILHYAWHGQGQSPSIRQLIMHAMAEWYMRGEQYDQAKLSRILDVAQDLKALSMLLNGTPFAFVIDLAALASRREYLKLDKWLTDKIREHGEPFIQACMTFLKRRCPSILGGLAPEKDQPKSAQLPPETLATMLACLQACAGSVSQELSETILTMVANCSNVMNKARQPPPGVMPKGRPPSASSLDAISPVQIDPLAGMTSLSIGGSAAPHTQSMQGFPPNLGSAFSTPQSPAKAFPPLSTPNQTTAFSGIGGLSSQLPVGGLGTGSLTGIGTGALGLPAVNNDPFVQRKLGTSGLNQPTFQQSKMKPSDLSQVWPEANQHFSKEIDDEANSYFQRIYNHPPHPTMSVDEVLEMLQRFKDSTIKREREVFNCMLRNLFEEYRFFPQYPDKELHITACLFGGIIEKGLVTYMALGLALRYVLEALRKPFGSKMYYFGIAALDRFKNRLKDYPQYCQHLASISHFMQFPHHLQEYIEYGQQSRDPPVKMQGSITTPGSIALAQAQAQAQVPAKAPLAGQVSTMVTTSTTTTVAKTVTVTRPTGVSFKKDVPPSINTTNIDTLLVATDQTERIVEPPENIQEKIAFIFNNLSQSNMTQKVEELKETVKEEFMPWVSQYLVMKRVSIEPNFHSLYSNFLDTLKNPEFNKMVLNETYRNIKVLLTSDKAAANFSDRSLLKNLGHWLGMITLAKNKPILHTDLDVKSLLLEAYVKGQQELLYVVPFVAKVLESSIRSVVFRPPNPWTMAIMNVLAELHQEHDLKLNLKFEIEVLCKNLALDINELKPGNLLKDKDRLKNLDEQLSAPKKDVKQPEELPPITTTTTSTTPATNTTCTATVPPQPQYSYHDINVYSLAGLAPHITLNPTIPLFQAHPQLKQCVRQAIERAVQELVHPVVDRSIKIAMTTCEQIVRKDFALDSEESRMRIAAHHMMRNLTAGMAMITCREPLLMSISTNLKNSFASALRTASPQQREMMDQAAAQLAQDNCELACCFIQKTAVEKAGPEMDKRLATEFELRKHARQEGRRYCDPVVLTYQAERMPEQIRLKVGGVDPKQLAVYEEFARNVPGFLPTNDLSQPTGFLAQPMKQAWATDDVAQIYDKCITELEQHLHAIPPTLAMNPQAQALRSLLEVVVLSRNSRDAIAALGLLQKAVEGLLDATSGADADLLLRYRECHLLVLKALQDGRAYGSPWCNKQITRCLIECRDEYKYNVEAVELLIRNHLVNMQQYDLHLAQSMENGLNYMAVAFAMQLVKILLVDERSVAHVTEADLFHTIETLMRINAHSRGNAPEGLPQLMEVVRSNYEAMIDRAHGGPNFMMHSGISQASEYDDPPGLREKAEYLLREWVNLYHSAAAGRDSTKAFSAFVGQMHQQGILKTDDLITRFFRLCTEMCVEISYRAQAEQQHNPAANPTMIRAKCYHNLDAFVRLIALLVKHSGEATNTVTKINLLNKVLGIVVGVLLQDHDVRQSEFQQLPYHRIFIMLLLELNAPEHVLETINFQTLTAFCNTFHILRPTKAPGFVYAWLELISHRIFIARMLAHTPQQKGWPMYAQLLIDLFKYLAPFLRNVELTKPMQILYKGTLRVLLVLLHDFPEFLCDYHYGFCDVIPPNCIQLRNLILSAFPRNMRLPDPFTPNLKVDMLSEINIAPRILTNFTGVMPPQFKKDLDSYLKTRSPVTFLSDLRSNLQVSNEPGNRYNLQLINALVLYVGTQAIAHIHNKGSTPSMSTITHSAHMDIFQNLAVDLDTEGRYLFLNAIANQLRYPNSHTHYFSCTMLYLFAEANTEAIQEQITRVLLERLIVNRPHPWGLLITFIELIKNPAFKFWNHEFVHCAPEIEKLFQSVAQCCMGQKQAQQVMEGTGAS
NOT1:NOT2:NOT3:CAF40 subcomplex (full-length subunits) (human), sequence (Q9NZN8 whole entry, chain 2 of 4, further chain): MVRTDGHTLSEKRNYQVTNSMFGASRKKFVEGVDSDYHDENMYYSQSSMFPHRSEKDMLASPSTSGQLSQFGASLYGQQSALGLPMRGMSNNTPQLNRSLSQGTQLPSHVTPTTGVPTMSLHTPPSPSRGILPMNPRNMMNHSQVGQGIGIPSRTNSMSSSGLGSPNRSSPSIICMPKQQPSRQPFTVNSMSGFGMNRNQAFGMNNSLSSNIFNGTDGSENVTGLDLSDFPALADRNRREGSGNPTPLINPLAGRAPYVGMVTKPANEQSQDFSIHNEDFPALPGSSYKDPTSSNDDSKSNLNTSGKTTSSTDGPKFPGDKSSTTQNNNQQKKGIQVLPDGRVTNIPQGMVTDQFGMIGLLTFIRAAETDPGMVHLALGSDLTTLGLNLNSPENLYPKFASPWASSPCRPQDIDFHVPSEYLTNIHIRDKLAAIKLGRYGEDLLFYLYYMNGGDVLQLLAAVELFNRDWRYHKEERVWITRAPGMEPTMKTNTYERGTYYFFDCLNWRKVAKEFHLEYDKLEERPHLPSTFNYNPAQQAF
NOT1:NOT2:NOT3:CAF40 subcomplex (full-length subunits) (human), sequence (O75175 whole entry, chain 3 of 4, further chain): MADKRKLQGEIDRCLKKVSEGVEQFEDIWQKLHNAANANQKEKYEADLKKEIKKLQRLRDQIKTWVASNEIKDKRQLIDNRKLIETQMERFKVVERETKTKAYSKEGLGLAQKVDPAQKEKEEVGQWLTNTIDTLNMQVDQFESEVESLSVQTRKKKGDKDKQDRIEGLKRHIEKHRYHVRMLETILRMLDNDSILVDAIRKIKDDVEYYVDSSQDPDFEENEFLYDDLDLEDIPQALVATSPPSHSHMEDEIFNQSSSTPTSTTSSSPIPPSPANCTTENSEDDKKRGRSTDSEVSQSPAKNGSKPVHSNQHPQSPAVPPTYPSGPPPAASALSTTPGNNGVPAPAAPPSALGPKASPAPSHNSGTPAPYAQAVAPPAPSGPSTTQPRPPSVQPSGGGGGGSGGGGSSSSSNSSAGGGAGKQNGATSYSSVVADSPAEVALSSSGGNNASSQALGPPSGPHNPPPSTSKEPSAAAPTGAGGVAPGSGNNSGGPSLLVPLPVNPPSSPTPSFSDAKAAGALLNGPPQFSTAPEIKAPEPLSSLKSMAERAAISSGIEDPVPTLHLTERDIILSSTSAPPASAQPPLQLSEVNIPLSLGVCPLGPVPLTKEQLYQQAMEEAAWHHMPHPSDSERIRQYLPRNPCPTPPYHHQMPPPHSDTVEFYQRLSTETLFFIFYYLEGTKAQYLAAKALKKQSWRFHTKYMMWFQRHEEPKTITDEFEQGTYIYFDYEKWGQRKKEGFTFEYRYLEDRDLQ
NOT1:NOT2:NOT3:CAF40 subcomplex (full-length subunits) (human), sequence (Q92600 whole entry, chain 4 of 4, further chain): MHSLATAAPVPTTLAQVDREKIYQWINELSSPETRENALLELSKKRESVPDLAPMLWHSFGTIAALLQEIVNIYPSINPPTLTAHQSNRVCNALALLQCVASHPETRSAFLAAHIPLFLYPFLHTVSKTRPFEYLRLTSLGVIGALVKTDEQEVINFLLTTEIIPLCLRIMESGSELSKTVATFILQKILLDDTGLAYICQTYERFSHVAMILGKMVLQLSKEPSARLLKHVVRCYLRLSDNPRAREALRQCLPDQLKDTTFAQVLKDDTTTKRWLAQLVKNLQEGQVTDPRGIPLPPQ

CAF1, full length (human), sequence (Q9UIV1 whole entry): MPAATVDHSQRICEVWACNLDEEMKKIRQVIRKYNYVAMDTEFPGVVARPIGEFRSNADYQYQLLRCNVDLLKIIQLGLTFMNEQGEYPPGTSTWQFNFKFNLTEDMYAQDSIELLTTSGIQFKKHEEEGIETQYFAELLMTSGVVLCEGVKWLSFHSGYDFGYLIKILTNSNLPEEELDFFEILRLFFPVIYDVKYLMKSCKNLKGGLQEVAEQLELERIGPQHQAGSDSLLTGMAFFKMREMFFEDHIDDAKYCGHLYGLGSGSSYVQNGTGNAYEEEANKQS
CCR4a, full length (human) (human), sequence (Q9ULM6 whole entry): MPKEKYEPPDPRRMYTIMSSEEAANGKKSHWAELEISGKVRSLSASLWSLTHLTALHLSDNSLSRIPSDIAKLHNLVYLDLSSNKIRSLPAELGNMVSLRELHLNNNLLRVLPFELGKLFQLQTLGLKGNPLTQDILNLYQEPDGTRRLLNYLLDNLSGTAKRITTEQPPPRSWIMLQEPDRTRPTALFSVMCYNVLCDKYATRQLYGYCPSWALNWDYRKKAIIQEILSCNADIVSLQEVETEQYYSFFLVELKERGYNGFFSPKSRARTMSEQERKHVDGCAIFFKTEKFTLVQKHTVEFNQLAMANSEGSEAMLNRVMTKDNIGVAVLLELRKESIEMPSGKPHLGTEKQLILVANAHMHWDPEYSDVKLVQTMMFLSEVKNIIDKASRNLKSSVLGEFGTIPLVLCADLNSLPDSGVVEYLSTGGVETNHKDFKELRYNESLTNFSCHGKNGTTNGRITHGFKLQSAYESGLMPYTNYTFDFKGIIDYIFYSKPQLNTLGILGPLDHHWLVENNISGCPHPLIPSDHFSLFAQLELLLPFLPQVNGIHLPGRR

| stoichiometry N [1] | stoichiometry N [2] | Substance |
| --- | --- | --- |
| 1 | – | CAF1, full length (human) (from UniProt Q9UIV1 1-285) (enzyme) |
| – | 1 | CCR4a:CAF1 exonuclease heterodimer (wild type) (from UniProt Q9ULM6 1-557; Q9UIV1 1-285) (complex) |
